Test results from PMC6795507 (Science Advances, 2019).
Several values for one entry are separate records, joined by “and”; a condition that tells them apart may be missing. Equal entries are not always repeated.

What was measured:
[1] = target: tail fiber gp17 of phage P68 (in the virion) (Staphylococcus aureus phage P68); experiment: cryo-EM structure
[2] = target: portal protein gp19 of phage P68 (Staphylococcus aureus phage P68); experiment: cryo-EM structure
[3] = target: major capsid protein gp20 of phage P68 (Staphylococcus aureus phage P68); experiment: cryo-EM structure
[4] = target: head fiber gp14 of phage P68 (Staphylococcus aureus phage P68); experiment: cryo-EM structure
[5] = target: lower collar protein gp18 of phage P68 (Staphylococcus aureus phage P68); experiment: cryo-EM structure
crystal structure = target: the molecule itself; experiment: crystal structure

Molecule: tail fiber gp17 of phage P68 (in the virion) (natural protein)
- stoichiometry N [1]: 3

Molecule: inner core protein gp22 of phage P68 (natural protein)
- stoichiometry N [2]: 6

Molecule: major capsid protein gp20 of phage P68 (natural protein)
- stoichiometry N [3]: 5 and 6

Molecule: head fiber gp14 of phage P68 (natural protein)
- stoichiometry N [4]: 3

Molecule: portal protein gp19 of phage P68 (natural protein)
- stoichiometry N [2]: 12

Molecule: lower collar protein gp18 of phage P68 (natural protein)
- stoichiometry N [5]: 12

B1: His-tagged tail fiber protein of phage P68 (recombinant) (natural protein)
chain: MAYNENDFKYFDDIRPFLDEIYKTRERYTPFYDDRADYNTNSKSYYDYISRLSKLIEVLARRIWDYDNELKKRFKNWDDLMKAFPEQAKDLFRGWLNDGTIDSIIHDEFKKYSAGLTSAFALFKVTEMKQMNDFKSEVKDLIKDIDRFVNGFELNELEPKFVMGFGGIRNAVNQSINIDKETNHMYSTQSDSQKPEGFWINKLTPSGDLISSMRIVQGGHGTTIGLERQSNGEMKIWLHHDGVAKLLQVAYKDNYVLDLEEAKGLTDYTPQSLLNKHTFTPLIDEANDKLILRFGDGTIQVRSRADVKNHIDNVEKEMTIDNSENNDNRWMQGIAVDGDDLYWLSGNSSVNSHVQIGKYSLTTGQKIYDYPFKLSYQDGINFPRDNFKEPEGICIYTNPKTKRKSLLLAMTNGGGGKRFHNLYGFFQLGEYEHFEALRARGSQNYKLTKDDGRALSIPDHIDDLNDLTQAGFYYIDGGTAEKLKNMPMNGSKRIIDAGCFINVYPTTQTLGTVQELTRFSTGRKMVKMVRGMTLDVFTLKWDYGLWTTIKTDAPYQEYLEASQYNNWIAYVTTAGEYYITGNQMELFRDAPEEIKKVGAWLRVSSGNAVGEVRQTLEANISEYKEFFSNVNAETKHREYGWVAKHQK
- stoichiometry N (crystal structure): 3
